The text below walks through data of patent US20250250357A1 (NANJING ZAIMING PHARMACEUTICAL, published 2025).

The target in assay [1] is T1, human MSLN-R1-his protein (human, UniProt Q13421 296-390).
T1 construct: Self-made in HEK293E cells; also called human MSLN-R1 protein; hMSLN-R1-his; not shown: His tag
T1 chain: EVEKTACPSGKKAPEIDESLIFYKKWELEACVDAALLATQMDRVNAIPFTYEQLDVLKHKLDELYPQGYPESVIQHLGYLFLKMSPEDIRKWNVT
Kind of assay: ELISA on coated antigen, antibody 1 nM. On the technique in general: An ELISA detects its analyte on a solid surface through an enzyme-linked reagent.

Assay [2] deals with T2, human MSLN-FL-his protein (human, UniProt Q13421 296-580).
T2 construct: Self-made in HEK293E cells; also called human MSLN full-length protein; hMSLN-FL-his; not shown: His tag
Kind of assay: ELISA on coated antigen, antibody 0.0001 nM.

Assay [3] deals with T2, human MSLN-FL-his protein. Kind of assay: ELISA on coated antigen, antibody 10 nM.
Description: (§1) The plate was sealed with a plastic film and incubated at 4° C. overnight. The next day, the plate was washed twice with PBST, and a blocking buffer [PBS+2% (w/w) BSA] was added for blocking at room temperature for 2 h. The blocking buffer was discarded, and a chimeric antibody or negative control antibody serially diluted from 100 nM was added at 50 μL/well. After incubation at 37° C. for 2 h, the plate was washed 3 times with PBST. […] After incubation at 37° C. for 2 h, the plate was washed 5 times with PBST. A TMB substrate was added at 50 μL/well for incubation at room temperature for 5-10 min, and then a stop solution (1.0 N HCl) was added at 50 μL/well.
For assay [4], the target named is T1, human MSLN-R1-his protein. Kind of assay: ELISA on coated antigen, no antibody (column none).
Description: as §1
The target of assay [5] is T1, human MSLN-R1-his protein. Kind of assay: ELISA on coated antigen, antibody 0.1 nM.
Description: as §1
Assay [6] deals with T1, human MSLN-R1-his protein. Kind of assay: ELISA on coated antigen, antibody 0.0001 nM.
Description: as §1
Assay [7] deals with T1, human MSLN-R1-his protein. Kind of assay: ELISA on coated antigen, antibody 100 nM.
Description: as §1
The target in assay [8] is T2, human MSLN-FL-his protein. Kind of assay: ELISA on coated antigen, antibody 0.001 nM.
Description: as §1
Assay [9] concerns the target T1, human MSLN-R1-his protein. Kind of assay: ELISA on coated antigen, antibody 0.01 nM.
Description: as §1
The target in assay [10] is T1, human MSLN-R1-his protein. Kind of assay: ELISA on coated antigen, antibody 0.001 nM.
Description: as §1
Assay [11] addresses T2, human MSLN-FL-his protein. Kind of assay: ELISA on coated antigen, antibody 0.1 nM.
Description: as §1
Assay [12] has as its target T2, human MSLN-FL-his protein. Kind of assay: ELISA on coated antigen, antibody 1 nM.
Description: as §1
Assay [13] deals with T1, human MSLN-R1-his protein. Kind of assay: ELISA on coated antigen, antibody 10 nM.
Description: as §1
In assay [14] the target is T2, human MSLN-FL-his protein. Kind of assay: ELISA on coated antigen, antibody 0.01 nM.
Description: as §1
Assay [15] has as its target T2, human MSLN-FL-his protein. Kind of assay: ELISA on coated antigen, no antibody (column none).
Description: as §1
Assay [16] concerns the target T2, human MSLN-FL-his protein. Kind of assay: ELISA on coated antigen, antibody 100 nM.
Description: as §1

B1: S009-F3.23.1 (antibody, human IgG1, kappa, V domains shown)
VH: QVQLQQSGADLVRPGASVTLSCKASGYTFTDYEMHWVKQTPVHGLEWIGAIDPETGDTVYNQNFKGKAILTADKSSSTAYMELRSLTSEDSAVYYCTRYGYDWGWGQGTTLTVSS
VL: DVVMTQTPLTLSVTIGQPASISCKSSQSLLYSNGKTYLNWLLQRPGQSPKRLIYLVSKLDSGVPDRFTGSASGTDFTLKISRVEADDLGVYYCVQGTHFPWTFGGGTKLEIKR
notes: Human-murine chimeric antibody: murine VH/VL on human IgG1 heavy and kappa light constant regions
For B1, the OD450 in [1] stood at 0.06 OD450; in [2] it was 0.07 OD450; in assay [3] it was 2.11 OD450; in [4] it was 0.07 OD450; in assay [5] it was 0.06 OD450; in assay [6] it was 0.07 OD450. Besides, the OD450 in assay [7] amounted to 0.08 OD450; in assay [8] it was 0.15 OD450; in assay [9] it was 0.06 OD450; in assay [10] it was 0.06 OD450; in assay [11], 1.76 OD450; in [12], 1.98 OD450. Besides, the OD450 in assay [13] came out at 0.06 OD450; in assay [14], 0.7 OD450; in assay [15], 0.07 OD450; in [16], 2.39 OD450.

B2: S009-F3.7.3 (antibody, human IgG1, kappa, V domains shown)
VH: EVNFEESGGGLVQPGGSMKLSCVASGFTFSNYWMNWVRQSPEKGLEWVAQIRLKSDNYATHYAESVKGRFTISRDDFKSSVYLQMNNLRAEDTGIYYCTVGTGGYWGQGTTLTVSS
VL: DIVLTQSPASLAMSLGKRATISCRASESVSIVGTNVIHWFQQKPGQPPKLLIYHASNLETGVPARFSGSGSGTDFTLTIDPVEEDDVAIYHCLQSRKIPWTFGGGTKLEIKR
notes: as for B1
In the case of B2, the OD450 in assay [1] came out at 0.07 OD450; in [2], 0.06 OD450; in [3], 0.08 OD450; in [4] it was 0.08 OD450; in [5], 0.07 OD450; in assay [6] it was 0.07 OD450. The OD450 amounted to 0.12 OD450 in assay [7]; 0.06 OD450 in assay [8]; 0.06 OD450 in assay [9]; 0.07 OD450 in assay [10]; 0.07 OD450 in assay [11]; 0.07 OD450 in assay [12]. Also, the OD450 in assay [13] amounted to 0.08 OD450; in assay [14] it was 0.07 OD450; in assay [15] it was 0.08 OD450; in assay [16] it was 0.13 OD450.

B3: S009-F3.16.1 (antibody, human IgG1, kappa, V domains shown)
VH: EVKFEESGGGLVQPGGSMKLSCVASGFTFSNYWMNWVRQSPEKGLEWVAQIRLKSDNYATHYAESVKGRFSISRDDSKSSVYLQMNNLRAEDTGIYYCSVGTGGYWGQGTTLTVSS
VL: DIVLTQSPASLALSPGKRATISCRASESVSIIGTDVIHWFQQKPGQPPKLLIYHASNLETGVPARFSGSGSRTDFTLTIDPVEEDDVAIYYCLQSRKIPWTFGGGTKLEIKR
notes: as for B1
For the molecule B3, the OD450 in assay [1] was 0.06 OD450; in [2] it was 0.06 OD450; in [3], 0.11 OD450; in assay [4], 0.08 OD450; in assay [5], 0.07 OD450; in assay [6], 0.07 OD450. Moreover, the OD450 in [7] was determined as 0.1 OD450; in [8], 0.06 OD450; in assay [9], 0.06 OD450; in [10] it was 0.07 OD450; in assay [11] it was 0.08 OD450; in assay [12], 0.08 OD450. Besides, the OD450 came out at 0.08 OD450 in assay [13], 0.07 OD450 in assay [14], 0.08 OD450 in assay [15] and 0.12 OD450 in assay [16].

B4: S009-F3.38.10 (antibody, human IgG1, kappa, V domains shown)
VH: EVQLQQSGPVLVKPGASVKMSCEASGYIFTDYYMNWVKKSHGKSLEWIGVINPKNGVISHNQKFKGKATLTVDKSSNTAYMELSSLTSEDSAVYYCANYGSRFYAMDYWGQGTSVTVSS
VL: DVVMTQTPLSLPVSLGDQASISCRSSQSLIHSDGNTYLQWYLQKSGQSPKLLIYKVSNRFSGVPDRFSGSGSGTDFTLKISRVETEDLGVYFCSQTTHVPFTFGSGTKLEIKR
notes: as for B1
As to B4, the OD450 in [1] stood at 0.06 OD450; in assay [2] it was 0.06 OD450; in assay [3], 0.06 OD450; in assay [4], 0.07 OD450; in assay [5], 0.06 OD450; in [6] it was 0.07 OD450. Also, the OD450 came out at 0.11 OD450 in [7]; 0.06 OD450 in assay [8]; 0.06 OD450 in assay [9]; 0.07 OD450 in assay [10]; 0.07 OD450 in assay [11]; 0.07 OD450 in [12]. For the same molecule, the OD450 was 0.07 OD450 in assay [13], 0.07 OD450 in assay [14], 0.07 OD450 in [15] and 0.1 OD450 in [16].

B5: S009-F3.74.20 (antibody, human IgG1, kappa, V domains shown)
VH: RVQLQQSGAELVRPGASVTLSCKASGYTFTDSEMHWVKQTPVHGLEWIGAIDPEIDGTAYNQNFRDKAILTADKSSSTAYMELRSLTSEDSAVYYCTTYFGSGYGYFDVWGTGTTVTVSS
VL: DVVMTQTPLSLSVSLGDQASISCRSSQSLVYSNGNTYLHWFLQKPGQSPKLLIYKVSNRFSGVPDRFSGSGSGTDFTLKINRVEAEDLGVYFCSQSTHIPFTFGAGTKLELKR
notes: as for B1
For B5, the OD450 turned out to be 0.07 OD450 in [1]; 0.07 OD450 in [2]; 1.97 OD450 in assay [3]; 0.07 OD450 in assay [4]; 0.06 OD450 in assay [5]; 0.06 OD450 in assay [6]. Further, the OD450 turned out to be 0.11 OD450 in assay [7]; 0.11 OD450 in [8]; 0.06 OD450 in assay [9]; 0.06 OD450 in assay [10]; 1.59 OD450 in [11]; 1.88 OD450 in assay [12]. Further, the OD450 in [13] came out at 0.08 OD450; in assay [14] it was 0.42 OD450; in assay [15], 0.08 OD450; in assay [16], 2.17 OD450.

B6: S009-F3-63.5 (antibody, human IgG1, kappa, V domains shown)
VH: QVQLQQSGAELVRPGASVTLSCKASGYTFTDYEMHWVKQTPVHGLEWIGGIDPETGDTAYNQQFKGKAILTADRSSSTAYMELRSLTSEDSAVYYCTNYASSREDYWGQGTTLTVSS
VL: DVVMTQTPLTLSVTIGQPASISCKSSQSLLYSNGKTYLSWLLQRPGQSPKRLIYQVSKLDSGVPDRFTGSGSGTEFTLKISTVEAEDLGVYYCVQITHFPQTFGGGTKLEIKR
notes: as for B1
For B6, the OD450 in assay [1] is 0.06 OD450; in assay [2], 0.06 OD450; in [3], 2.15 OD450; in assay [4] it was 0.06 OD450; in [5], 0.05 OD450; in assay [6], 0.05 OD450. In addition, the OD450 in [7] is 0.09 OD450; in [8] it was 0.14 OD450; in assay [9], 0.05 OD450; in assay [10], 0.05 OD450; in assay [11], 1.72 OD450; in assay [12], 1.99 OD450. For the same molecule, the OD450 in assay [13] was 0.07 OD450; in assay [14], 0.62 OD450; in assay [15], 0.06 OD450; in assay [16], 2.76 OD450.

B7: S009-F3.45.21 (antibody, human IgG1, kappa, V domains shown)
VH: DVQLQESGPGLVKPSQSLSLTCSVTGDSITSGYYWNWIRQFPGNKLEWMGFIRFDGTNNYNPSLKNRISITRDTSKNQFFLKLNSVTTEDTATYYCAREGSYAPAWFAYWGQGTLVTVSA
VL: QIVLTQSPAIMSASPGEKVTMTCSASSSLSYMYWYQQKPGSSPRLLIYDTSNLASGVPVRFSGSGSGTSYSLTISRMEAEDAATYYCQQWSSYPPTFGGGTKLEIKR
notes: as for B1
B7: the OD450 in [1] is 0.06 OD450; in [2], 0.1 OD450; in [3], 1.8 OD450; in [4], 0.07 OD450; in [5] it was 0.05 OD450; in assay [6] it was 0.06 OD450. In addition, the OD450 came to 0.65 OD450 in assay [7]; 0.35 OD450 in assay [8]; 0.06 OD450 in assay [9]; 0.06 OD450 in assay [10]; 1.63 OD450 in assay [11]; 1.75 OD450 in assay [12]. In addition, the OD450 stood at 0.11 OD450 in [13], 0.69 OD450 in [14], 0.08 OD450 in assay [15] and 2.23 OD450 in [16].

B8: S009-F3.51.8 (antibody, human IgG1, kappa, V domains shown)
VH: QVQLQQSGAELVRPGASVTLSCKASGYTFTDYEMHWVKQTPVHGLEWIGGFDPETGGTAHNQKFKGKAILTADKSSSTAYMELRSLTSEDSAVYYCSNYGSIWGDCWGQGTSVTVSS
VL: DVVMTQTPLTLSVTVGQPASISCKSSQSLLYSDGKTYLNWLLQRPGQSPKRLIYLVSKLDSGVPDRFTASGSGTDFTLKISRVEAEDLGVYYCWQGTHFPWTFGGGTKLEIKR
notes: Human-murine chimeric antibody on human IgG1/kappa constant regions
As to B8, the OD450 amounted to 0.06 OD450 in assay [1]; 0.07 OD450 in assay [2]; 2.06 OD450 in assay [3]; 0.07 OD450 in assay [4]; 0.06 OD450 in assay [5]; 0.07 OD450 in [6]. Also, the OD450 worked out at 0.07 OD450 in assay [7]; 0.14 OD450 in assay [8]; 0.07 OD450 in [9]; 0.07 OD450 in [10]; 1.68 OD450 in [11]; 1.93 OD450 in assay [12]. Moreover, the OD450 amounted to 0.06 OD450 in assay [13], 0.63 OD450 in assay [14], 0.08 OD450 in assay [15] and 2.58 OD450 in [16].
